Publication PMC7313238 (Journal of the American Society for Mass Spectrometry, 2020)

Molecular target: the molecule itself
Experiment: SEC + native MS

B1: BX1 from Zea mays (zmBX1), wild type (enzyme)
chain: SRPVSDTMAALMAKGKTAFIPYITAGDPDLATTAEALRLLDGCGADVIELGVPCSDPYIDGPIIQASVARALASGTTMDAVLEMLREVTPELSCPVVLLSYYKPIMSRSLAEMKEAGVHGLIVPDLPYVAAHSLWSEAKNNNLELVLLTTPAIPEDRMKEITKASEGFVYLVSVNGVTGPRANVNPRVESLIQEVKKVTNKPVAVGFGISKPEHVKQIAQWGADGVIIGSAMVRQLGEAASPKQGLRRLEEYARGMKNALP
- stoichiometry N: 2
